# B1: AU1-tagged NR2B fragment, amino acids 1136-1310 (other)
# chain: QFRTKENSPHWEHVDLTDIYKERSDDFKRDSVSGGGPCTNRSHLKHGTGEKHGVVGGVPAPWEKNLTNVDWEDRSGGNFCRSCPSKLHNYSSTVAGQNSGRQACIRCEACKKAGNLYDISKDNSLQELDQPAAPVAVTSNASSTKYPQSPTNSKAQKKNRNKLRRQHSYDTFVDL
# notes: In vitro translated, 35S-labelled; also called distal portion of the bait; not shown: AU1 tag encoded by the 5' primer
# B2: HA-tagged RasGRF1 fragment, amino acids 835-913 (other)
# chain: TPKSFRNRITQEFPLFNYNSGIMMTCRDLMDSNRSPLSATSAFAIATAGANESPANKEIYRRMSLANTGYSSDQRNIDK
# notes: In vitro translated, 35S-labelled; not shown: HA tag encoded by the 5' primer
# B3: HA-tagged RasGRF1 fragment, amino acids 1-720 (other)
# chain: MQKAIRLNDGHVVSLGLLAQRDGTRKGYLSKRSSDNPKWQTKWFALLQNLLFYFESDSSSRPSGLYLLEGSICKRMPSPKRGTSSKESDKQHHYFTVNFSNDSQKSLELRTDDSKDCDEWVAAIARASYKILATEHEALMQKYLHLLQVVETEKTVAKQLRQQLEDGEVEIERLKAEIANLIKDNERIQSNQLVAPEDEDSDIKKIKKVQSFLRGWLCRRKWKNIIQDYIRSPHADSMRKRNQVVFSMLEAEAEYVQQLHILVNNFLRPLRMAASSKKPPITHDDVSSIFLNSETIMFLHQIFYQGLKARIASWPTLVLADLFDILLPMLNIYQEFVRNHQYSLQILAHCKQNRDFDKLLKQYEAKPDCEERTLETFLTYPMFQIPRYILTLHELLAHTPHEHVERNSLDYAKSKLEELSRVMHDEVSETENIRKNLAIERMITEGCEILLDTSQTFVRQGSLIQVPMSEKGKINKGRLGSLSLKKEGERQCFLFSKHLIICTRGSGSKLHLTKNGVISLIDCTLLDDPENMDDDGKGQEVDHLDFKIWVEPKDSPPFTVILVASSRQEKAAWTSDIIQCVDNIRCNGLMMNAFEENSKVTVPQMIKSDASLYCDDVDIRFSKTMNSCKVLQIRYASVERLLERLTDLRFLSIDFLNTFLHSYRVFTDAVVVLDKLISIYKKPITAIPARSLELLFSSSHNTKLLYGDAPKSPRASRKFS
# notes: In vitro translated, 35S-labelled; also called N-terminal portion of RasGRF1; not shown: HA tag encoded by the 5' primer
# B4: HA-tagged RasGRF1 fragment, amino acids 714-841 (other)
# chain: RASRKFSSPPPLAIGTSSPVRRRKLSLNIPIITGGKALELASLGCPSDGYTNIHSPISPFGKTTLDTSKLCVASSLTRTPEEIDMTTLEESSGFRKPTSDILKEESDDDQSDVDDTEVSPPTPKSFRN
# notes: as for B2
# B5: full-length mouse RasGRF1 (other, UniProt P27671 1-1262, looked up)
# chain: MQKAIRLNDGHVVTLGLLAQKDGTRKGYLSKRSADNPKWQTKWFALLQNLLFYFESDSSPRPSGLYLLEGSICKRAPSPKRGTSSKESGEKQQHYFTVNFSNDSQKTLELRTEDAKDCDEWVAAIARASYKILATEHEALMQKYLHLLQVVETEKTVAKQLRQQLEDGEVEIERLKTEVTITNLIKDNDRIQSSNKAGSADDEDSDIKKIKKVQSFLRGWLCRRKWKNIIQDYIRSPHADSMRKRNQVVFSMLEAEAEYVQQLHILVNNFLRPLRMAASSKKPPITHDDVSSIFLNSETIMFLHQIFYQGLKARISSWPTLVLADLFDILLPMLNIYQEFVRNHQYSLQILAHCKQNRDFDKLLKQYEAKPDCEERTLETFLTYPMFQIPRYILTLHELLAHTPHEHVERNSLDYAKSKLEELSRIMHDEVSETENIRKNLAIERMITEGCEILLDTSQTFVRQGSLMQMSLSEKSKSSRGRLGSLSTKKEGERQCFLFSKHLIICTRGSGGKLHLTKNGVISLIDCTLLDEPENLDDEAKGAGPEIEHLEFKIGVEPKDSLPFTVILVASTRQEKAAWTSDIIQCVDNIRCNGLMMNAFEENSKVTVPQMIKSDASLYCDDVDIRFSKTMNSCKVLQIRYASVERLLERLTDLRFLSIDFLNTFLHSYRVFTNAMVVLDKLINIYRKPMSAIPARSLELLFSSSHNAKLLYGDAPKSPRASRKFSSPPPLAIGTSSPSRRRKLSLNIPIITGGKALELASLGCSSDSYANIHSPISPFGKTTLDTGKLCMASSLPKTPEEIDVPATIPEKPGELSASRKHSSDVLKEESEDDQNHSDEDNTEVSPVKSPPTPKSFLNRTITEFPFFNYNNGILMTTCRDLVDNNRSTLSATSAFAIATAGANEGPSNKEVFRRMSLANTGFSSDQRNIDKEFVIRRAATNRVLNVLRHWVTKHTQDFDTDDTLKYRVICFLEEVMHDPDLLTQERKAAANIIRTLTLEETTEQHSMLEEVILMTEGVKTEPFENHPALEIAEQLTLLDHLVFKSIPYEEFFGQGWMKAEKYERTPYIMKTTKHFNHVSNFIASEIIRNEDISARASAIEKWVAVADICRCLHNYNAVLEITSSINRSAIFRLKKTWLKVSKQTKSLLDKLQKLVSSDGRFKNLRESLRNCDPPCVPYLGMYLTDLVFIEEGTPNYTEDGLVNFSKMRMISHIIREIRQFQQTTYKIDPQPKVIQYLLDESFMLDEESLYESSLLIEPKLPT
# notes: Full-length; also called in vitro translated RasGRF1; mouse RasGRF1 in pcDNA3
# What was measured:
# [1] = target: B5; assay: co-immunoprecipitation of in vitro translated proteins with AU1 antibody
# [2] = target: T1, in vitro translated full-length NR2B (Rattus norvegicus (Rat), UniProt Q00960 1-1482, limits assumed); assay: co-immunoprecipitation of in vitro translated proteins with anti-HA
# T1 construct: Full-length, 35S-labelled, translated in vitro
# T1 sequence (Q00960 other isoform, or with tags, fused parts or gaps limits assumed): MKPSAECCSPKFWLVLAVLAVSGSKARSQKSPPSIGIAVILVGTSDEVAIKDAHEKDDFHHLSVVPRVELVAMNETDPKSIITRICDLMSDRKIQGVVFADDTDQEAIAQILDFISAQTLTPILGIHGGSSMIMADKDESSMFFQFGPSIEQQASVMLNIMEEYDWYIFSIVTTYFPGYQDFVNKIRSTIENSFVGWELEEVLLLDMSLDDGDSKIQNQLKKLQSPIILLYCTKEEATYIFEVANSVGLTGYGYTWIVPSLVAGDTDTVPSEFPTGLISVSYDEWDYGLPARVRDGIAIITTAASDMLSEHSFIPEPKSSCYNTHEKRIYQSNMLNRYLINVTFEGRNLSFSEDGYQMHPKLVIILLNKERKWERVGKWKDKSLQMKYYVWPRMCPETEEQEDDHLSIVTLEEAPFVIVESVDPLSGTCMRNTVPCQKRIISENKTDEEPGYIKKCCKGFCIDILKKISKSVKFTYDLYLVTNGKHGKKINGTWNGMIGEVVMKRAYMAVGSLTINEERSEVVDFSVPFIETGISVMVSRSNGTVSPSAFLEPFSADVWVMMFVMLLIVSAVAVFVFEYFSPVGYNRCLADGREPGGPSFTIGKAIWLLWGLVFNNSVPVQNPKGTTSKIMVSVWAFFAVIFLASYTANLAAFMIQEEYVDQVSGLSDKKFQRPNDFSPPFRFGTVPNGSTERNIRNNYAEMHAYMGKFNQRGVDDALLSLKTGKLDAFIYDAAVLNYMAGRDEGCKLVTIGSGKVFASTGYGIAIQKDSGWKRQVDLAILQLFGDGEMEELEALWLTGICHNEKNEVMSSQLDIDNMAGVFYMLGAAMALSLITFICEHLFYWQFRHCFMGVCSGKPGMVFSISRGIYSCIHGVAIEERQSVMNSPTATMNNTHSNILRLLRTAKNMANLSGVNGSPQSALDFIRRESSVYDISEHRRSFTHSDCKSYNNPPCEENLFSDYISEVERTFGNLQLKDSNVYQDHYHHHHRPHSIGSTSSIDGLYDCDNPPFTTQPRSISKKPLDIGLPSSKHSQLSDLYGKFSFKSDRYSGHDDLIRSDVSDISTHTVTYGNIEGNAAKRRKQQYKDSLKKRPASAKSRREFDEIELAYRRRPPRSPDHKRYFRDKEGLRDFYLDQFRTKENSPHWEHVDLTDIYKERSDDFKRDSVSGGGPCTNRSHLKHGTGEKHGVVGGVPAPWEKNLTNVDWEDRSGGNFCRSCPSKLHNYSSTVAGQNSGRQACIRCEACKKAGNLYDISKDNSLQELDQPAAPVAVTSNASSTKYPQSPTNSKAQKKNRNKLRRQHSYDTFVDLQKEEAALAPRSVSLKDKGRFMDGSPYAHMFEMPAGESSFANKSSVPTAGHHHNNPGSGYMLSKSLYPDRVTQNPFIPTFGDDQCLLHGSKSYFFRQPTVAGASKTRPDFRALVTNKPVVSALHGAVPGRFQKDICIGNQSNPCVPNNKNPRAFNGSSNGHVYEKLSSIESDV
# Procedure: For in vitro binding experiments, equimolar amounts of in vitro translated ³⁵S-labeled proteins (calculated from radioactivity of the excised protein band and cysteine content in the specific fragment) were incubated with a 3-fold molar excess of translated RasGRF1 for 30 min at 30° C., diluted with RIPA buffer, and immunoprecipitated with anti-HA-agarose (Santa Cruz). In competition experiments, RasGRF1 and NR2B were immunoprecipitated for 2 hr at 4° C. from solubilized rat brain microsomes in the presence of 10 μM NusA, 10 μM NusA-RasGRF1-BD, or 5 μM NusA-NR2B-BD.
# [3] = target: T2, GFP rat NR2A (expressed in HEK293T cells) (rat, UniProt Q00959 23-1464); assay: co-immunoprecipitation from co-transfected HEK293T cells
# T2 construct: whole, on cells; not shown: GFP
# T2 sequence (Q00959 23-1464): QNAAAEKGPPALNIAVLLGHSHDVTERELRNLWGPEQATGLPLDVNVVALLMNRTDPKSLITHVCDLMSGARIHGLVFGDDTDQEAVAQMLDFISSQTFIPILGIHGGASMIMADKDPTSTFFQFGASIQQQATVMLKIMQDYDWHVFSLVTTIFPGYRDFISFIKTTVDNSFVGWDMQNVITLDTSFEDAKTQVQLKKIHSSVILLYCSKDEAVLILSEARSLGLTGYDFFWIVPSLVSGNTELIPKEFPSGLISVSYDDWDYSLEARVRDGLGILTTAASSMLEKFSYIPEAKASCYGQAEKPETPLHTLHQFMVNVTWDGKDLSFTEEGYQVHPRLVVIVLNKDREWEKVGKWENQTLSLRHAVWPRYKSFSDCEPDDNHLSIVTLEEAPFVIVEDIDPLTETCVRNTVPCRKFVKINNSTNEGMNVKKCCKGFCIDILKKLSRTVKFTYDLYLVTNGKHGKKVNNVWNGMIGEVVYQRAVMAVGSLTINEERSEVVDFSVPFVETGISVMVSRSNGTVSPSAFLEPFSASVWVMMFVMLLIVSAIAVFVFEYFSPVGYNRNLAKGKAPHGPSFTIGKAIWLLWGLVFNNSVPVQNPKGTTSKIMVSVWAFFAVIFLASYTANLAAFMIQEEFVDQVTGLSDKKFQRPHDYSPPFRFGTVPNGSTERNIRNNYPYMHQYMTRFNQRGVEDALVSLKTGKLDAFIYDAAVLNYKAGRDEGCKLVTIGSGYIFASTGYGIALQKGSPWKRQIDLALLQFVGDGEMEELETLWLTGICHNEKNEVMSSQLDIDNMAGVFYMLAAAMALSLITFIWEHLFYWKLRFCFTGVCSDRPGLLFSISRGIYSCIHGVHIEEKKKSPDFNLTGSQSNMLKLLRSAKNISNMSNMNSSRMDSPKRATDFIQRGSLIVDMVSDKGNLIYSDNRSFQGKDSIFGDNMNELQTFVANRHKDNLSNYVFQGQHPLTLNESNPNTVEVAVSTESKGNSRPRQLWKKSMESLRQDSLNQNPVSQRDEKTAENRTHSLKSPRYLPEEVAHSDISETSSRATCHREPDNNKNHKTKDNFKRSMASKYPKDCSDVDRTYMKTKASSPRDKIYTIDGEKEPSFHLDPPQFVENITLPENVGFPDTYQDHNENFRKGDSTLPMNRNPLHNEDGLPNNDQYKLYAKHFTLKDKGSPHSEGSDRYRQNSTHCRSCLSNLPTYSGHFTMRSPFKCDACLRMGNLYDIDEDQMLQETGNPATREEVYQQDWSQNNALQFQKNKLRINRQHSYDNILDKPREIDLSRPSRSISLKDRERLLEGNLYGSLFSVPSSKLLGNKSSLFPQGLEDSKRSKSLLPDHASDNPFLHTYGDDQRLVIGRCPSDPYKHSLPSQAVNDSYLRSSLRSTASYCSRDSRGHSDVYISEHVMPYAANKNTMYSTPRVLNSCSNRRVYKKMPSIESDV
# Procedure: Transfected cells were solubilized in lysis buffer (100 mM Tris-Cl [pH 8.5], 500 mM NaCl, 1% Triton X-100) supplemented with corn plete protease inhibitor (Roche) and immunoprecipitated with NR2B (Santa Cruz, sc-9057), NR1, or NR2A (Chemicon) antibody (5 μg/ml), washed with lysis buffer, separated on SDS gel, and blotted on PVDF. Blots were probed with anti-RasGRF1 (Santa Cruz) and the appropriate NR subunit antibody. 6- to 8-week-old rat brain P2 microsomes were isolated and solubilized as described (Luo, J., et al. (1997) Mol. Pharmacol. 51, 79-86). 80 μg of solubilized protein were immunoprecipitated with NR2B, RasGRF1, or pooled rabbit IgG, and immunoprecipitated proteins were probed on Western blot with RasGRF1 and NR2B antibodies. All immunoprecipitation experiments were only taken as valid if repeated 3-5 times with similar results. Routine negative controls with antigen pre-absorption were carried out for antibodies used in immunoprecipitation experiments. Also, all immunoprecipitating antibodies were tested for the cross-reactivity with in vitro translated co-immunoprecipitated molecules.
binding result [2],Binder,also measured
,B1,binding result [1]: no binding
no binding,B2,
no binding,B3,
no binding,B4,
,B5,binding result [3]: no binding

# — patent US20060035283A1 (CHILDREN S MEDICAL CENTER, published 2006)
